According to article PMC10234109 (2023):
Blank lines part the entries; values can stand above or below the binder they belong to.

Biological target: T1, HCBD–GST (helical cargo-binding domain of mouse Myo6, residues 1052–1096) (Mus musculus (Mouse), UniProt Q64331)
T1 chain: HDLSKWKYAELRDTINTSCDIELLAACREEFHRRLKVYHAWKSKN
Assay: GST pulldown, Coomassie-stained gel

binding result: no binding
B1: GIPC3 PDZ (93–181), MBP-tagged (protein)
chain: GETKEVEVTKTEDALGLTITDNGAGYAFIKRIKEGSIINRIEAVCVGDSIEAINDHSIVGCRHYEVAKMLRELPKSQPFTLRLVQPRRA

binding result: binds
B2: GIPC3 PDZ-GH2 domains (93–297), MBP-tagged (protein)
chain: GETKEVEVTKTEDALGLTITDNGAGYAFIKRIKEGSIINRIEAVCVGDSIEAINDHSIVGCRHYEVAKMLRELPKSQPFTLRLVQPRRAFDMIGQRSRSSKCPVEAKVSSGRETLRLRSGGAATVEEAPSDVEAAAARRVDDLLESYMGIRDPELAAAVVETARSSAGAQAFARGLDAVLGEFAFPDEFVVEVWAAIGEAHDACG
